t½ of the HLA A*0201-peptide complex data for one substance are collected here from PMC3481325.

The assay addresses HLA A*0201 (soluble, the MHC part of the HLA A*0201-peptide complexes). Nature of the assay: SPR. In general terms: SPR reads the build-up and loss of mass on a sensor chip optically.

Consider […] peptide (Melan A 26-35), for which the t½ of the HLA A*0201-peptide complex is 8 h.
